According to PMC11703348, “Role of Aspartate 42 and Histidine 79 in the aiPLA2 activity and oligomeric status of Prdx6 at low pH” (Research Square, 2024):
Where a chain is given by its changes, count along the chain named. In names and notes the source's numbering stands.

B1: Peroxiredoxin 6 (Prdx6), recombinant rat wild type (enzyme, UniProt O35244 1-224, looked up)
chain: MPGGLLLGDEAPNFEANTTIGHIRFHDFLGDSWGILFSHPRDFTPVCTTELGRAAKLAPEFAKRNVKLIALSIDSVEDHFAWSKDINAYNGAAPTEKLPFPIIDDKDRDLAILLGMLDPAEKDEKGMPVTARVVFIFGPDKKLKLSILYPATTGRNFDEILRVVDSLQLTASNPVATPVDWKKGESVMVLPTLPEEEAKQLFPKGVFTKELPSGKKYLRYTPQP
notes: Peroxiredoxin 6 (Prdx6), rat, wild type; cloned between the NdeI and SapI sites of pTYB1; no extra residues remain after intein self-cleavage; also called Wt Prdx6; WT Prdx6
B2: D42A Prdx6 (Asp42 to Ala mutant of rat Prdx6) (enzyme, UniProt O35244 1-224, looked up)
chain: B1 chain with D42A
notes: Peroxiredoxin 6 (Prdx6), rat, with Asp42 replaced by Ala (QuikChange mutagenesis); the methods print it once as Asp43Ala; Same construct as m1 with the point mutation; also called Asp42A; Asp42-Ala
B3: H79A Prdx6 (His79 to Ala mutant of rat Prdx6) (enzyme, UniProt O35244 1-224, looked up)
chain: B1 chain with H79A
notes: Peroxiredoxin 6 (Prdx6), rat, with His79 replaced by Ala (QuikChange mutagenesis); Same construct as m1 with the point mutation; also called His79A; His79-Ala

Tests used:
[1] = target: the molecule itself; assay: dynamic light scattering; pH 7.4; protein 2 mg/ml, 25 °C; hydrodynamic diameter and volume fraction (Zetasizer)
[2] = target: the molecule itself; assay: native gel or EMSA; native-PAGE at neutral pH: 50 mM Tris-HCl, 100 mM NaCl pH 7.4, running buffer 35 mM Hepes, 43 mM imidazole pH 7.4; continuous 7.5% gel, non-reducing, non-denaturing; markers BSA and ferritin
[3] = target: the molecule itself; assay: native gel or EMSA; native-PAGE at low pH: 40 mM Na-acetate pH 4, running buffer 30 mM beta alanine, 20 mM lactic acid pH 3.8, reverse polarity; continuous 7.5% gel, non-reducing, non-denaturing; markers BSA and ferritin

| Protein | stoichiometry N [1] | stoichiometry N [2] | stoichiometry N [3] |
| --- | --- | --- | --- |
| B1 | 2 |  |  |
| B2 |  | 2 | ~2 |
| B3 |  | 2 | ~2 |
